Measurements reported in publication PMC7105676.

Target: T1, FlhF-His6 (Campylobacter jejuni 81-176?) (UniProt O52908)
T1 sequence: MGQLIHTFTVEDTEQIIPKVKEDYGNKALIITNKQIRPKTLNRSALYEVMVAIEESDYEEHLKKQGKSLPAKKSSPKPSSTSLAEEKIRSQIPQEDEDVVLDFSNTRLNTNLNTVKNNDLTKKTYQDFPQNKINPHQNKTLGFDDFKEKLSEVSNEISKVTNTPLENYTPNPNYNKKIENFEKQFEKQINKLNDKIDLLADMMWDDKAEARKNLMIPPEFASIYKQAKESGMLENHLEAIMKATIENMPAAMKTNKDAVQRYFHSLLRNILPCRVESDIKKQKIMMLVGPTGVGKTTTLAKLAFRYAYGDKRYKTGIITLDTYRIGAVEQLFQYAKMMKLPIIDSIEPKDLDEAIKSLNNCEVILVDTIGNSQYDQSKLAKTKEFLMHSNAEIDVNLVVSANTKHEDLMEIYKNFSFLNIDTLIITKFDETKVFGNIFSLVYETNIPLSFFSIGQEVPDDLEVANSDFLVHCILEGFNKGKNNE
Test: EMSA

**Q.** Which binding does the source give for “TTCTTTGACTTTTTGAAAATTTTGGATTTTTTCGGGAGTTTTTATGGTTGAGTGGTGTTCAAAAATGATTAAATTTAAAGTCTTTAAATCTAAATTTTCTATCGTCGACCTGCAGGCA (double strand) [PflgI fragment 6]” here?
**A.** no binding

**Q.** How did the binding turn out when “TGCCTGCAGGTCGACGATACCAGTTTCACCACTCGGGCTCATTTTTAAGATTTAAAGCTAAAATTATACTTTTTTAGGCTAAAAAATAACTTTAAAAATAAAAAGTATTTTCAAAAAGACGATATAAAATTATATAATTTAAATTTTTGGAACAGTTATTGCTTTTGTTTATTAGCAATATTTGAAAAGATTTTAACTTTAATACTTTAGAGGAAA (double strand) [flgL promoter]” was run?
**A.** no binding

**Q.** How did the binding turn out when “ATAACGCCATTAATCCCCACTACACCACTTTTACACATATCTTCAGAAATAGCTCTTCTTTTCGTGATATTAACTACATTTAAAAATTTATCTACTCTCATAAAAGCAATTTTAGCAAAAAAAATCAATTTTTGGAACAAAATTTGCTTATGCCTTTGCTTTATTTTTTAAGAAAATAGCAAGTAAAAACTTTTCTTTAATGAAATTTGGATACAATTTTACAATTTTCAAATCTATTTTAACAAAGGATATCGTCGACCTGCAGGCA (double strand) [rpoN promoter]” was run?
**A.** no binding

**Q.** For “TGCCTGCAGGTCGACGATGCTTTTACGCTTCTTAACTTACTTGGAACACTTCTTGCTTGATCTATCATCAACAATAGATTAAAGGAAGAATCCA (double strand) [PflgI fragment 5]”, which binding is on record?
**A.** no binding

**Q.** Which binding does the source give for “TCATTTATCATTCCTCTAATAAAATCTTAAAATCATTCAAATCAAGTAAAAGCAAATTCTGTTCGCATATTTTATCAAATTCCTTGCTAAAACCATTTTTTGAGATTATAATGTAATAATTTGGAGCCAAATTTAAAGACTTTGCTTTTGATTTTAAAAGATTTAAAATATTTTTACAAATTTTTTTATTTTATCGTCGACCTGCAGGCA (double strand) [flgS promoter]” here?
**A.** binds

**Q.** For “TGCCTGCAGGTCGACGATCAACCATAAAAACTCCCGAAAAAATCCAAAATTTTCAAAAAGTCAAAGAAAAGAAATTTGGATCAACTAGCTTAAGCTTTTACGCTTCTTAACTTACTTGGAACACTTCTTGCTTGATCTATCATCAACAATAGATTAAAGGAAGAATCCA (double strand) [PflgI fragment 2]”, which binding is on record?
**A.** binds

**Q.** Which binding does the source give for “AATTCATCCTAAGCCTTTTAAAAAATTTCTGCTATGGTATCCAATTTGCGCTTAATTTTGAATTTACTTTTTTTTAAGTATAATAAATTATCGCATTTTGTTCGCCAAATTCCACGGTAAAACGCAAGGGTAAAATTTTGACATAAGTTTCGCTTTGGGCATGTAATAAGTCAGTATTAACAATATCCTTAACACTGATTCTAGCTCCATCGTCGACCTGCAGGCA (double strand) [flgR promoter]” here?
**A.** no binding

**Q.** With “CTTTTAAATCCTTTCAAAATATTGCATCGAAAAGATTAAAGCAAGAAGTGTTCCAAGTTTTAATTTGATTAAAAATTTTAAAGCTTATAAATAAAAAGCCTAGTATTTAAACTAGGCTTGGATTTGTATAAATTGCAGCATTCTTAAAAGAATGTAAAGTGATTTTAAGATTTAACTATTGTAATCGTCGACCTGCAGGCA (double strand) [flaB promoter]” as the sequence, how does the binding read?
**A.** no binding

**Q.** For “TGCCTGCAGGTCGACGATGGGTGTGATTTTGGTAATTTTCATTACACAAAAGACCAAAGCTTCATAAACTCCCAAAATACCTTTAAATTTTTTCTATAAATTTTTAAAAAATTTCAAAAGTTGGAACAGAACTTGCTTGTAAACTTCACATAAACGCAAAAGTTTTTTAAAGCCAAAGCGTTAAATTTTTTAAAGCAATATTTTATAAAGGATTTAAGA (double strand) [flgE promoter]”, which binding is on record?
**A.** no binding

**Q.** How did the binding turn out when “TGCCTGCAGGTCGACGATAAGAAATTTGGATCAACTAGCTTAAGCTTTTACGCTTCTTAACTTACTTGGAACACTTCTTGCTTGATCTATCATCAACAATAGATTAAAGGAAGAATCCA (double strand) [PflgI fragment 4]” was run?
**A.** binds

**Q.** How did the binding turn out when “TGCCTGCAGGTCGACGATTGCAGATGCAAACATTAAAAATCCTTTAAATTTAGAATTCTTAGGTCATTTAAGCGCTTCTAAAGATGTAAGTGGTAGTATTAAAAAAAGAACTTTATTTAGCGATGAAAACACAGCCTCAAGTGATGAGATTAAAGCCCTAGCTTCCAAGCTTTTATATAGATTGGAACGGAAAGTGCTTGATA (double strand) [fliA promoter]” was run?
**A.** binds

**Q.** How did the binding turn out when “TGGATTCTTCCTTTAATCTATTGTTGATGATAGATCAAGCAAGAAGTGTTCCAAGTAAGTTAAGAAGCGTAAAAGCTTAAGCTAGTTGATCCAAATTTCTTTTCTTTGACTTTTTGAAAATTTTGGATCGTCGACCTGCAGGCA (double strand) [PflgI fragment 3]” was run?
**A.** binds

**Q.** How did the binding turn out when “TGCCTGCAGGTCGACGATAATTTAATCATTTTTGAACACCACTCAACCATAAAAACTCCCGAAAAAATCCAAAATTTTCAAAAAGTCAAAGAAAAGAAATTTGGATCAACTAGCTTAAGCTTTTACGCTTCTTAACTTACTTGGAACACTTCTTGCTTGATCTATCATCAACAATAGATTAAAGGAAGAATCCA (double strand) [PflgI fragment 1]” was run?
**A.** binds

**Q.** For “TTTAAATCCTTTTAAATAATTTCAAACTCATCCATGAGCTTGTTAAATGCTATATCGTTACTTTTTTTAAAAATTTATACCTTAAACTAAAAAATTATAAATATCGCATTTTAATTGGAATCTGCAAATAAAAATTTCAAGCCACTGTTTATAAAATGTCAAGTATATTAATAAATACTCTCTTTCATCTTCAATTATCGTCGACCTGCAGGCA (double strand) [flaA promoter]”, which binding is on record?
**A.** no binding

**Q.** For “TGCCTGCAGGTCGACGATAAATATCGACCTAAAGCGTAAATTTTATACCTTAAAAAGAAAAAATTATAATTTTAACAGAGCTTTAGAAAAATTTGAAAAAATATTCAAATCATAAACATAATAACCGATTTATATAGAAAGTTAAGCAATTTTTAGATAAAATCCAAAGCTTATATAAATTTCAAGGATAATCAA (double strand) [rpoD promoter]”, which binding is on record?
**A.** binds

**Q.** Which binding does the source give for “TGCCTGCAGGTCGACGATAGAAAATTTAGATTTAAAGACTTTAAATTTAATCATTTTTGAACACCACTCAACCATAAAAACTCCCGAAAAAATCCAAAATTTTCAAAAAGTCAAAGAAAAGAAATTTGGATCAACTAGCTTAAGCTTTTACGCTTCTTAACTTACTTGGAACACTTCTTGCTTGATCTATCATCAACAATAGATTAAAGGAAGAATCCA (double strand) [flgI promoter (PflgI, 201 bp)]” here?
**A.** binds

**Q.** Which binding does the source give for “AAGCTCTATCAAAAGAAGTTTTAAAAACGCATCCTTATCTAAGGTAGCGTTTGGATTGCTCACTATTCCTGAGCTACTGCTTGAATCTGTTCTAGTTGTCCCACTAGTACTTCCTGAAGAAGTAGTACCTGAAGTTGTAGCAGTGGTATTTAAATTCCAATCCGATGATGATATCATTATAAACTCCTTTTTATTTAGTTTTTTATTATTTAAGCAATAAGTGTTCCAATTATCGTCGACCTGCAGGCA (double strand) [fliK promoter]” here?
**A.** no binding
